Results as given in publication PMC11853100, “Structural analysis of extracellular ATP-independent chaperones of streptococcal species and protein substrate interactions” (mSphere, 2025).

B1: Streptococcus pneumoniae PrsA (enzyme)
chain: GADLISMKGDVITEHQFYEQVKNNPSAQQVLLNMTIQKVFEKQYGSELDDKEVDDTIAEEKKQYGENYQRVLSQAGMTLETRKAQIRTSKLVELAVKKVAEAELTDEAYKKAFDEYTPDVTAQIIRLNNEDKAKEVLEKAKAEGADFAQLAKDNSTDEKTKENGGEITFDSASTEVPEQVKKAAFALDVDGVSDVITATGTQAYSSQYYIVKLTKKTEKSSNIDDYKEKLKTVILTQKQNDSTFVQSIIGKELQAANIKVKDQAFQNIFTQYIGGGDSSSSSSTSNE
notes: also called SpnPrsA; hexa-his-tagged SpnPrsA; not shown: His6, N-terminal, kept
B2: Streptococcus pneumoniae pneumolysin, recombinant (natural protein)
chain: ANKAVNDFILAMNYDKKKLLTHQGESIENRFIKEGNQLPDEFVVIERKKRSLSTNTSDISVTATNDSRLYPGALLVVDETLLENNPTLLAVDRAPMTYSIDLPGLASSDSFLQVEDPSNSSVRGAVNDLLAKWHQDYGQVNNVPARMQYEKITAHSMEQLKVKFGSDFEKTGNSLDIDFNSVHSGEKQIQIVNFKQIYYTVSVDAVKNPGDVFQDTVTVEDLKQRGISAERPLVYISSVAYGRQVYLKLETTSKSDEVEAAFEALIKGVKVAPQTEWKQILDNTEVKAVILGGDPSSGARVVTGKVDMVEDLIQEGSRFTADHPGLPISYTTSFLRDNVVATFQNSTDYVETKVTAYRNGDLLLDHSGAYVAQYYITWDELSYDHQGKEVLTPKAWDRNGQDLTAHFTTSIPLKGNVRNLSVKIRECTGLAWEWWRTVYEKTDLPLVRKRTISIWGTTLYPQVEDKVEND
notes: pneumolysin of S. pneumoniae strain R6, residues 2-471 of WP_001284359.1; pQE30 vector; In the folding assays it was denatured in 8 M urea and then diluted; also called Ply; Ply toxin
B3: Streptococcus mutans PrsA (enzyme)
chain: ACSKTNQNSKIATMKGDTITVADFYNEVKNSTASKQAVLSLLVSKVFEKQYGDKVSDKEVTKAYNEAAKYYGDSFSSALASRGYTKEDYKKQIRSEKLIEYAVKEEAKKEITDASYKSAYKDYKPEVTAQVIQLDSEDKAKSVLEEAKADGADFAKIAKDNTKGDKTEYSFDSGSTNLPSQVLSAALNLDKDGVSDVIKASDSTTYKPVYYIVKITKKTDKNADWKAYKKRLKEIIVSQKLNDSNFRNAVIGKAFKKANVKIKDKAFSEILSQY
notes: also called SmuPrsA

Columns and labels:
[1] = molecular target: B2; experiment: MST; chaperone labelled with red NHS dye kept at 20 nM, unlabelled protein in serial dilution; pH 6.5, 0.05% Tween 20, 25 C; 1:1 model in PALMIST, 95% CI; settings: both partners purified
bovine serum albumin = molecular target: T1, bovine serum albumin (bovine, UniProt P02769 25-607); experiment: as above; settings: both partners purified
T1 construct: also called BSA

[2] = molecular target: the molecule itself; experiment: crystal structure; X-ray structures of SpnPrsA (2.55 A) and SmuPrsA (3.15 A); dimers in the crystal
[3] = molecular target: B2; experiment: ITC; chaperone in the syringe, Ply in the sample cell; 20 mM MES, 100 mM NaCl, 1 mM beta-mercaptoethanol, 10% glycerol, pH 6.5, 25 C; independent binding model; settings: both partners purified
[4] = molecular target: T2, Streptococcus pneumoniae SlrA (Streptococcus pneumoniae strain R6, UniProt Q8DQG5 19-267); experiment: MST; chaperone labelled with red NHS dye kept at 20 nM, unlabelled protein in serial dilution; pH 6.5, 0.05% Tween 20, 25 C; 1:1 model in PALMIST, 95% CI; settings: both partners purified
T2 construct: also called SpnSlrA; hexa-his-tagged SpnSlrA; source: E. coli BL21 (DE3), expressed and purified similarly to Ply (Ni-NTA, dialysis); not shown: His6, N-terminal, kept

[5] = molecular target: T2, Streptococcus pneumoniae SlrA; experiment: ITC; chaperone in the syringe, Ply in the sample cell; 20 mM MES, 100 mM NaCl, 1 mM beta-mercaptoethanol, 10% glycerol, pH 6.5, 25 C; independent binding model; settings: both partners purified

T1 sequence (P02769 25-607): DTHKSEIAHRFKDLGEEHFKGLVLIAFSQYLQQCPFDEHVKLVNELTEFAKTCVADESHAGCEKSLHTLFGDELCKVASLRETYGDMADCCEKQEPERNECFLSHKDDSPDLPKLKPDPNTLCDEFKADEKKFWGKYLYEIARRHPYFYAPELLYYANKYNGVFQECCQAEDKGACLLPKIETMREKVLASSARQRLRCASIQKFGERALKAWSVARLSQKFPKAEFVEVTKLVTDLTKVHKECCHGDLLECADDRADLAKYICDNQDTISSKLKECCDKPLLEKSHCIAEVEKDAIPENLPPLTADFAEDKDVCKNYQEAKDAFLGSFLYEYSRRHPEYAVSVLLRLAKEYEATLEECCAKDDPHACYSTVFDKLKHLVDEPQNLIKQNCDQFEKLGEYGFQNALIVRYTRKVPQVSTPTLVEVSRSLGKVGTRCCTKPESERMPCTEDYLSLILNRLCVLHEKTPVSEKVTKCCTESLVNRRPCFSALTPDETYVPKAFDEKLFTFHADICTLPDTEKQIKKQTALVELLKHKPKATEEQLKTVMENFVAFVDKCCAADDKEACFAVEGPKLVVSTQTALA

| Binder | Kd [1] | Kd (bovine serum albumin) | binding result [2] | Ka [3] | Kd [3] | dH [3] | stoichiometry N [3] | Kd [4] | Ka [5] | Kd [5] |
| --- | --- | --- | --- | --- | --- | --- | --- | --- | --- | --- |
| B1 | 70 nM | 62000 ± 58000 nM | binds | 8.38e+06 M⁻¹ | 119 ± 25.9 nM | -100 ± 3.74 kcal/mol | 1.85 | – | – | – |
| B2 | – | – | – | – | – | – | – | 60 nM | 1.23e+07 M⁻¹ | 81.2 ± 18 nM |
| B3 | – | – | binds | – | – | – | – | – | – | – |
